We go through two substances from patent US6630572.

As a reminder, the Kd is a measure of binding affinity in units of concentration.

Test [1] concerns the target high-affinity cell surface thrombin receptor on mouse embryo (ME) cells (mouse) (UniProt P30558). Nature of the test: competition with [^125I]-alpha-thrombin on ME cells.
The target is the same in test [2]. Nature of the test: competition with [^125I]-alpha-thrombin (1 nM) on quiescent ME cells.
Test [3] shares this target. Nature of the test: competition with [^125I]-alpha-thrombin on ME cells; reference p508-530.
For test [4] the target is unchanged. Nature of the test: competition with [^125I]-alpha-thrombin (1 nM) on quiescent ME cells; at 800 nM peptide.
The target is the same in test [5]. Briefly: competition with [^125I]-alpha-thrombin (1 nM) for specific binding to quiescent ME cells, 23 C.
Test [6] has as its target high-affinity cell surface thrombin receptor on NIL cells (hamster fibroblasts) (hamster). Nature of the test: cell-based or functional assay.
Test [7] addresses high-affinity cell surface thrombin receptor on mouse embryo (ME) cells (mouse) (UniProt P30558). Briefly: cell-based or functional assay.
For test [8] the target is unchanged. Briefly: competition with [^125I]-alpha-thrombin (1 nM) on quiescent ME cells; at 40 nM peptide.
For test [9] the target is unchanged. Nature of the test: competition with 0.3 nM [^125I]-alpha-thrombin on ME cells; p508-530 from 8 to 4000 nM.
Test [10] shares this target. Nature of the test: Scatchard analysis of direct binding of [^125I]-labelled peptide to cells (data not shown).

Several values for one entry are separate records, joined by “and”; a condition that tells them apart may be missing. Equal entries are not always repeated.

“synthetic peptide p519-530 (residues 519 to 530 of the B-chain region of human prothrombin)” yielded a percent of [^125I]-alpha-thrombin binding competed in test [1] of 30 to 50%. In [2], this substance came in with a concentration at Maximal % Inhibition of 800 nM. The fold higher concentration for 30% inhibition than p508-530 in test [3] turned out to be 33 fold. The substance further gave a Maximal % Inhibition in test [4] of 51%. The substance also registered a Concentration Required for 30% Inhibition in test [5] of 200 nM.
“synthetic peptide p508-530 (residues 508 to 530 of human prothrombin)”: the increase in DNA synthesis over controls in NIL cells in the presence of 25 ng/ml PMA in test [6] turned out to be 3.5 fold. For the same substance, in test [7], the concentration of p508-530 at which stimulation of ME cells was observed was 12.5 nM and 100 nM; the increase in incorporation of [^3H]-thymidine into DNA in ME cells, 0.1 uM p508-530 with 2 nM alpha-thrombin, against cultures treated with alpha-thrombin alone is above 2 fold; the increase in incorporation of [^3H]-thymidine into DNA in ME cells, 0.1 uM p508-530 with 2 nM alpha-thrombin, against untreated cultures came to 6 fold. In [2], this substance gave a concentration at Maximal % Inhibition of 40 nM. For the same substance, the Maximal % Inhibition in test [8] is 78%. Also, the percent of specific [^125I]-alpha-thrombin binding competed in test [9] was in the range of 30 to 70%. The substance further returned a Kd in test [10] of 60 nM. In test [5], this substance came in with a Concentration Required for 30% Inhibition of 6 nM.
